Data taken from US12077586B2, “Bispecific antibodies for use in the treatment of hematological malignancies” (LAVA THERAPEUTICS N.V., priority 2018, dated 2024).

B1: 1D22: anti-CD1d VHH, SEQ ID NO: 84 (protein)
VHH: QVQLVESGGGLVQAGGSLRLSCAASGSIFSINAMGAIRWSGESPYYADSVKGVISSSGSTNYADSVKGRFTISRDNAKNTAYLQMNSLKVEDTAVYYCAAHVAGFDEYNYWGQGTQVTVSS
modifications: antibody sequence
B2: 5D7: Vγ9Vδ2-TCR binding VHH, SEQ ID NO: 154 (protein)
VHH: EVQLVESGGGLVQAGGSLRLSCIASGRTFSNYAMGWFRQAPGKEREFVAAISWSGGMTDHADSVKGRFTISRDNAKNTVYLQMNSLKPEDTAVYYCAAAFAGDIPYGSSWYGDPTTYDYWGQGTQVTVSS
modifications: antibody sequence
B3: 5B11: Vγ9Vδ2-TCR binding VHH, SEQ ID NO: 155 (protein)
VHH: EVQLVESGGGLVQAGGSLRLSCAASGRTSSTFSMAWFRQAPRKEREFVAAINWSGGSTRYADSVSDRFAISRDNAKNTVYLQMNNLKPEDTAVYYCAARRGGIYYSTQNDYDYWGQGTQVTVSS
modifications: antibody sequence
B4: 6C4: Vγ9Vδ2-TCR binding VHH, SEQ ID NO: 156 (protein)
VHH: EVQLVESGGGLVQAGGSLRLSCAVSVRTFSDYRMGWFRQAPGKEREFVSTISWSGGLTYYADSVKGRFTISRDNSKNTLYLQMNSLKPEDTAVYYCAAGGGYAGGTYYHPEEWGQGTQVTVSS
modifications: antibody sequence
B5: 5E3: Vγ9Vδ2-TCR binding VHH, SEQ ID NO: 139 (protein)
VHH: EVQLVESGGGLVQAGGSLRLSCTASGRTFSSYAMGWFRQAPGKEREFVAAISWSGGTTYYADSVKGRFTISRDNAKNTVSLQMNSLKPEDTAVYFCAASLDCSGPGCHTAEYDYWGQGTQVTVSS
modifications: antibody sequence
B6: 1D7: CD1d-specific VHH, SEQ ID NO: 70 (protein)
VHH: EVQLVESGGGLVQAGGSLRLSCAASVSSFSSYTMGTIRTGGSTNYADSVKGGIRWDDENPYYADSVKGRFTISRDNAKNTLYLQMNSLKPEDTANYYCAARLVPPGIPFERTLENMRYWGKGTLVTVSS
modifications: antibody sequence
B7: 5C7: Vγ9Vδ2-TCR binding VHH, SEQ ID NO: 153 (protein)
VHH: EVQLVESGGGLVQAGDSLRLSCAASGRTFSRYTMGWFRQAPGKEREFVAAISWSGGRTNFAGSVKGRFTISRDNAKNTVYLQMNSLKPEDTAVYYCAADWLPVPGRESYDYWGQGTQVTVSS
modifications: antibody sequence

Assays:
Jeko-1 cells = assay: Cytotoxicity assay with Vγ9Vδ2-T cell lines, Jeko-1 target cells; format: cell-based, human; conditions: 2 hours pretreatment (50 μM pamidronate or 25 μM mevastatin), 1:2; for 1D7-5C8-induced lysis of pretreated Jeko-1 cells: 100 nM 1D7-5C8, 6 hours; for Vγ9Vδ2-T cell-mediated lysis of pretreated Jeko-1 cells: no bispecific antibody, 6 hours
Method: Target cells were then cocultured overnight with Vγ9Vδ2-T cell lines in a 1:1 ratio unless otherwise indicated. Viability was measured using Mitotracker Orange (25-minute incubation at 37° C., M7510) and To-pro-3 (10-minute incubation at room temperature; T3605, both Thermo Fisher Scientific).
If indicated, target cells were pretreated with 25 μM mevastatin (M2537, Sigma-Aldrich), 50 μM aminobisphosphonates (pamidronate, #12J08RD, TEVA Pharmachemie, Haarlem, the Netherlands) or medium control for 2 hours.
If indicated, cells were cultured with the indicated concentrations of all-trans retinoic acid (ATRA; R2625, Sigma-Aldrich) for 48 hours unless otherwise indicated. ATRA was washed away prior to cytotoxicity assays.
If indicated, target cells were pre-incubated with 5 μg/mL anti-CD1d mAb (clone 51.1, 350304, Biolegend, San Diego, CA, USA) and/or 10 μg/mL anti-CD277 mAb (clone 103.2, Creative Biolabs, Shirley, NY, USA) for 10 minutes.

[1] = system: CLL patient-derived Vγ9Vδ2-T cells; assay: Activation, cytokine and degranulation assay with autologous CLL patient-derived Vγ9Vδ2-T cells; format: cell-based, human; conditions: overnight culture of CLL PBMC; 1D7-5C8 50 nM
Excerpt: (A-C) Activation of and cytokine production and degranulation by patient-derived Vγ9Vδ2-T cells. […] (D) Lysis of primary CLL cells by autologous Vγ9Vδ2-T cells. […] Live CLL cells were quantified by flow cytometry using counting beads (n=5). (E) Expansion of patient-derived Vγ9Vδ2-T cells. […] Percentage Vγ9Vδ2-T cells after 1 week (n=8). Data are presented as mean and SD. *P<0.05, **P<0.01, ***P<0.001. (A-D: one-way ANOVA followed by Dunnett's post hoc test compared to medium control; E: paired t-test).

[2] = biological target: T1, sulfatide-loaded CD1d tetramers (Homo sapiens, UniProt P15813); assay: CD1d-tetramer binding on Jurkat-Vδ1 cells; conditions: ratio VHH:CD1d of ~4:1; tetramer 2 μg/ml
T1 construct: made in house
T1 sequence (P15813 20-301 limits assumed): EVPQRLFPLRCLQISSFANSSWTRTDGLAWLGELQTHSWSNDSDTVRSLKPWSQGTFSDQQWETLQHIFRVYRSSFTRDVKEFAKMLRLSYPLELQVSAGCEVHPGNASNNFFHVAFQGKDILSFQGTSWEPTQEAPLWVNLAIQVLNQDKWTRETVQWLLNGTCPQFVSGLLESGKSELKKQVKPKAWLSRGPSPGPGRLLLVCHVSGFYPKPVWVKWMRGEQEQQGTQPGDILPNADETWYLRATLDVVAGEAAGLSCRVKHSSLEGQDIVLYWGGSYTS
T1 sequence (P61769 21-119 partner): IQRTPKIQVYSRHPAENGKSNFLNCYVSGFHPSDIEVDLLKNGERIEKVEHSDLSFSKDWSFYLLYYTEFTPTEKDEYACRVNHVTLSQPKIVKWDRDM
Method: (§1) FIG. 2. Vδ1-sulf-CD1d interaction is prevented by anti-CD1d VHH 1D12 and reduced by 1D22. Endogenous or sulfatide loaded CD1d-PE tetramers were incubated with either PBS (control), 1D12 or 1D22 (4:1VHH:CD1d ratio) after which tetramers were used to stain Jurkat-Vδ1 cells (final concentration tetramer 2 μg/ml) in combination with CD3-APC. Tetramer binding is prevented by 1D12 and reduced by 1D22 (A). C1R-CD1d cells were incubated with DMSO controls or sulfatide (25 μg/ml) after which medium or anti-CD1d VHH were added at 1000 or 100 nM and incubated for 30 min. Next Jurkat-Vδ1 cells were added and the co-culture was incubated for an additional 24 h after which CD69 expression was determined by flow cytometry (B). N=3.
To evaluate the effect of 1D12 and 1D22 on CD1d-tetramer binding on Jurkat-Vδ1 cells, endogenous or sulfatide-loaded CD1d-PE tetramers were incubated with either PBS (control), 1D12 or 1D22 (ratio VHH:CD1d of ˜4:1) for 30 min at room temperature after which tetramers were added to Jurkat-Vδ1 cells (final concentration tetramer 2 μg/ml) in combination with CD3-APC and incubated for 45 min at 4 degrees Celsius. Data was analyzed by flow cytometry.

Jurkat-Vδ1 cells = assay: Modulation of Jurkat-Vδ1 cell activation (C1R-CD1d co-culture, CD69); format: cell-based, human; conditions: C1R-CD1d pulsed with 25 μg/ml sulfatide; VHH 100 nM or 1000 nM; 24 hr
Method: as §1
iNKT cells are known to dock over the extreme F′ pocket of CD1d which contrasts with sulfatide-CD1d restricted Vδ1-T cells that dock more towards the A′ pocket. We therefore evaluated the effect of 1D12 and 1D22 on sulfatide-CD1d restricted Vδ1-T cells. To evaluate the effect of 1D12 and 1D22 on Jurkat-Vδ1 cell activation, 1×10^5 C1R-CD1d cells were seeded per well in a 96-well tissue culture plate and pulsed for 2 hr with vehicle control (DMSO 0.05%) or 25 μg/ml sulfatide. […] After 24 hr Jurkat-Vδ1 cells were harvested and analysed for CD69 expression by flow cytometry. […]

iNKT cells = assay: Modulation of iNKT cell activation (co-culture with Hela-CD1d cells); format: cell-based, human; conditions: 24 hr co-culture with Hela-CD1d pulsed with vehicle or α-GalCer; 1D12 100 nM, 1D22 1000 nM
Excerpt: FIG. 1. […] Representative dot-plots illustrating marked activation by 1D12 (A) or inhibition by 1D22 (B) of iNKT cells as depicted by CD25 expression, in addition to a marked increase (by 1D12) or decrease (by 1D22) in iNKT cell IFN-γ production (C and D). Data represent mean+SD of 3-4 individual experiments with iNKT obtained from different donors, **P<0.01, ***P<0.001, calculated with a one-way analysis of variance with Turkey's post hoc test.
To evaluate the capacity of 1D12 and 1D22 to stimulate or inhibit iNKT cell activation, 5×10^4 Hela-CD1d cells were seeded per well in a 96-well tissue culture plate and pulsed overnight with vehicle control (DMSO 0.01%) or 100 ng/ml α-GalCer. Cells were then washed with PBS and incubated with medium, or the anti-CD1d specific VHH for 1 hr at the indicated concentrations. Subsequently, 5×10^4 pure and resting iNKT were added to each well. After 24 hr, culture supernatants were analyzed for (induction or inhibition of) cytokine production by CBA (BD Biosciences) whereas iNKT cells were harvested and analyzed for CD25 expression by flow cytometry.

Vδ2 chain = biological target: T2, Vδ2 chain (Homo sapiens, UniProt A0JD36); conditions: Mean Fluorescence Index class; γδ T-cells expressing Vδ2 chain paired with non Vγ9 chain; cited from earlier work
T2 construct: host or cells: γδ T-cells expressing a Vδ2 chain paired with a non-Vγ9 chain
T2 sequence (A0JD36 with tags, fused parts or gaps): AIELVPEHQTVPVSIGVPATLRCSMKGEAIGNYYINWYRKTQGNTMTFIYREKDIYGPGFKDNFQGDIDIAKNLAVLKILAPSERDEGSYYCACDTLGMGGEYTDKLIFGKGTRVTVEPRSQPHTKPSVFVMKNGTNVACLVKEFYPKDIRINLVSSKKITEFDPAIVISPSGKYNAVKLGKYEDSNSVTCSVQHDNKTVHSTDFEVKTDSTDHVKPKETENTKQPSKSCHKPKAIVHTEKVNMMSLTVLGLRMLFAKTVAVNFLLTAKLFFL
T2 sequence (P07766 23-207 partner): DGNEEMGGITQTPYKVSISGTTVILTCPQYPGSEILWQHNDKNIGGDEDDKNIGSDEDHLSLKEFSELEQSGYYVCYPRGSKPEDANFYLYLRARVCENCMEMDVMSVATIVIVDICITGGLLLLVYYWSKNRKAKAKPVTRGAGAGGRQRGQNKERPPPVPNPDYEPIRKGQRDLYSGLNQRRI
T2 sequence (P09693 23-182 partner): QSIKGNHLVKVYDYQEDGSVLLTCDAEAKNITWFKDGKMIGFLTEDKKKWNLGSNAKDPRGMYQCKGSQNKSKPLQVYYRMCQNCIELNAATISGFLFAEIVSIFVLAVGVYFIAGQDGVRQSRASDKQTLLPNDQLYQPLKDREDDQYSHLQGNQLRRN
T2 sequence (P04234 22-171 partner): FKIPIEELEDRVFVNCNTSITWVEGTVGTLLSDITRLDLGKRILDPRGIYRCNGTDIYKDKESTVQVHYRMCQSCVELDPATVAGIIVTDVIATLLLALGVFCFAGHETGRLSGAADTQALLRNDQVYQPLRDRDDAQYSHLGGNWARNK
T2 sequence (P20963 22-164 partner): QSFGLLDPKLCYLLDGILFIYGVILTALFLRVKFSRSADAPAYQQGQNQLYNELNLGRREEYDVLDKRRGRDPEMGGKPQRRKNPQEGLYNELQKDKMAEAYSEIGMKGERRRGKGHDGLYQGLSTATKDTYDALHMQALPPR

complete Vγ9Vδ2 TCR = biological target: T3, complete Vγ9Vδ2 TCR (Homo sapiens, UniProt A0JD36+Q99603, T7A); conditions: Mean Fluorescence Index class; cited from earlier work
T3 construct: host or cells: γδ T-cells expressing the complete Vγ9Vδ2 TCR
T3 sequence (Q99603 with tags, fused parts or gaps T7A limits assumed): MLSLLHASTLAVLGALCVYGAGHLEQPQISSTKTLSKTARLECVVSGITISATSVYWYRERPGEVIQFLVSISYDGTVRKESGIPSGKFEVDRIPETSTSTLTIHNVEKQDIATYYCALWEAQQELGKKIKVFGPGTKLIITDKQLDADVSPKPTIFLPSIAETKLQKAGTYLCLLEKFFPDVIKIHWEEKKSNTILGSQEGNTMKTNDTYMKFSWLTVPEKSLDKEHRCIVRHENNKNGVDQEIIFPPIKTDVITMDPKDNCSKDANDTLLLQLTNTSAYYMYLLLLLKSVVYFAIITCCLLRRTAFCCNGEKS
T3 sequence (A0JD36 with tags, fused parts or gaps, stated change not applied): as the sequence (A0JD36 with tags, fused parts or gaps) above
T3 sequence (P07766 23-207 partner): as the sequence (P07766 23-207 partner) above
T3 sequence (P09693 23-182 partner): as the sequence (P09693 23-182 partner) above
T3 sequence (P04234 22-171 partner): as the sequence (P04234 22-171 partner) above
T3 sequence (P20963 22-164 partner): as the sequence (P20963 22-164 partner) above

Vγ9 chain = biological target: T4, Vγ9 chain (Homo sapiens, UniProt Q99603, T7A); conditions: Mean Fluorescence Index class; γδ T-cells expressing Vγ9 chain paired with non Vδ2 chain; cited from earlier work
T4 construct: host or cells: γδ T-cells expressing a Vγ9 chain paired with a non-Vδ2 chain
T4 sequence (Q99603 with tags, fused parts or gaps T7A limits assumed): as the sequence (Q99603 with tags, fused parts or gaps T7A limits assumed) above
T4 sequence (P07766 23-207 partner): as the sequence (P07766 23-207 partner) above
T4 sequence (P09693 23-182 partner): as the sequence (P09693 23-182 partner) above
T4 sequence (P04234 22-171 partner): as the sequence (P04234 22-171 partner) above
T4 sequence (P20963 22-164 partner): as the sequence (P20963 22-164 partner) above

[3] = system: γδ T-cells not expressing any of the Vγ9Vδ2 TCR chains; conditions: Mean Fluorescence Index class; cells not expressing any Vγ9Vδ2 TCR chain; cited from earlier work
CD1d = biological target: T5, CD1d (Homo sapiens, UniProt P15813); conditions: previously characterized; cited from earlier work
T5 construct: expressed in transfected cells; host or cells: MM.1s (human multiple myeloma cell line) stably transduced with CD1d
T5 sequence (P15813 20-335): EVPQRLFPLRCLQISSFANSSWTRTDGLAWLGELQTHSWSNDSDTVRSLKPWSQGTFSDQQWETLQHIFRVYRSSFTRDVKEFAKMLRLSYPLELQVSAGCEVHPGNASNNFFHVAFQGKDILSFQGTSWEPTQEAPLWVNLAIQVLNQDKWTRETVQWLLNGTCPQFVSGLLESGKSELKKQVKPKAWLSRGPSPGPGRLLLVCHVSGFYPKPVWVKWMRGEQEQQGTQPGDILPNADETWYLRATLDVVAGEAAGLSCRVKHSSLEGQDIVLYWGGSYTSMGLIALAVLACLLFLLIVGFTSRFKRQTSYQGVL
T5 sequence (P61769 21-119 partner): as the sequence (P61769 21-119 partner) above

Molecule	Binding, Vδ2+ (Vδ2 chain)	Binding, Vγ9Vδ2+ (complete Vγ9Vδ2 TCR)	Binding, Vγ9+ (Vγ9 chain)	Binding, Vγ9Vδ2− [3]	further results
CC[C@H](C)C(=O)O[C@H]1CCC=C2C=C[C@H](C)[C@H](CC[C@@H]3C[C@@H](O)CC(=O)O3)[C@H]21 [mevastatin, reference compound]					1D7-5C8-induced lysis of pretreated Jeko-1 cells (Jeko-1 cells): decreased bispecific antibody 1D7-5C8-induced lysis; Vγ9Vδ2-T cell-mediated lysis of pretreated Jeko-1 cells (Jeko-1 cells): led to a reduction in lysis
NCCC(O)(P(=O)(O)O)P(=O)(O)O [pamidronate, reference compound]					1D7-5C8-induced lysis of pretreated Jeko-1 cells (Jeko-1 cells): led to an increase in bispecific antibody 1D7-5C8-induced lysis of Jeko-1 cells; Vγ9Vδ2-T cell-mediated lysis of pretreated Jeko-1 cells (Jeko-1 cells): more sensitive to Vγ9Vδ2-T cell-mediated cytotoxicity; Upregulation of activation marker CD25 on patient Vγ9Vδ2-T cells [1]: 20.5 fold
B1					Binding of sulfatide-loaded CD1d tetramers to Jurkat-Vδ1 cells [2]: only a limited impact; Jurkat-Vδ1 cell activation (CD69 expression) (Jurkat-Vδ1 cells): only a limited impact on expression of the activation marker CD69; iNKT cell activation (CD25 expression) and cytokine production (iNKT cells): completely blocked iNKT cell activation and cytokine production
B2	++ (“++” indicates an MFI above 20)	++ (“++” indicates an MFI above 20)	− (“−” indicates a Mean Fluorescence Index (MFI) below 1.5)	− (“−” indicates a Mean Fluorescence Index (MFI) below 1.5)	
B3	− (“−” indicates a Mean Fluorescence Index (MFI) below 1.5)	+ (“+” indicates an MFI of between 4.6 and 20)	− (“−” indicates a Mean Fluorescence Index (MFI) below 1.5)	− (“−” indicates a Mean Fluorescence Index (MFI) below 1.5)	
B4	+/− (“+/−” indicates an MFI of between 1.5 and 4.5)	++ (“++” indicates an MFI above 20)	++ (“++” indicates an MFI above 20)	− (“−” indicates a Mean Fluorescence Index (MFI) below 1.5)	
B5	− (“−” indicates a Mean Fluorescence Index (MFI) below 1.5)	++ (“++” indicates an MFI above 20)	++ (“++” indicates an MFI above 20)	− (“−” indicates a Mean Fluorescence Index (MFI) below 1.5)	
B6					Affinity for CD1d (CD1d): high affinity for CD1d
B7	+/− (“+/−” indicates an MFI of between 1.5 and 4.5)	+/− (“+/−” indicates an MFI of between 1.5 and 4.5)	− (“−” indicates a Mean Fluorescence Index (MFI) below 1.5)	− (“−” indicates a Mean Fluorescence Index (MFI) below 1.5)	
